Results on six molecules are retold here after patent US20140087995A1 (published 2014).

Numbered stars: 1 amine (or outer) side, 2 acyl side, 3 side chain; on linkers, the order of the positions; unused ones are H or OH. Bridge positions count the residues as written; N and C are the ends. Side chains are listed from the residue outwards. Ends that are not written are not given here. * marks the point of attachment. C20 diacid = O=C(O)CCCCCCCCCCCCCCCCCCC(=O)*; γGlu = O=C(O)[C@H](CCC(=O)[*:2])N[*:1]; AEEA = NCCOCCOCC(=O)O

T1: human calcitonin receptor (human, UniProt P30988 25-474)
T1 sequence (looked up): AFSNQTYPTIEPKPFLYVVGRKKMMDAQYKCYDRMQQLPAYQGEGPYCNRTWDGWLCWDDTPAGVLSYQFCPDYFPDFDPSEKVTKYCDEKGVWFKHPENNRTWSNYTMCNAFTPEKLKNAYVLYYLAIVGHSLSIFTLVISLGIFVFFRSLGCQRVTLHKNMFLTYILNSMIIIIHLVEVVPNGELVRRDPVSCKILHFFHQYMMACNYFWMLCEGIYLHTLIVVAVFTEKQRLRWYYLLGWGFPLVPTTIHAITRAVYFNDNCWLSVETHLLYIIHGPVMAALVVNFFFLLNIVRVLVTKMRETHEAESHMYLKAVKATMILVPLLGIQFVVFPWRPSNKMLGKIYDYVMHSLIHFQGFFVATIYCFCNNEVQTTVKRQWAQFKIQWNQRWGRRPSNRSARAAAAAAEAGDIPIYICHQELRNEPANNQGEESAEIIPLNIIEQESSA

T2: human amylin receptor (amylin 3(a) receptor: human calcitonin receptor plus RAMP-3) (human, UniProt P30988 25-474; O60896 24-148, limits assumed)
T2 sequence (looked up) 1: T1 sequence (looked up)
T2 sequence (looked up) 2: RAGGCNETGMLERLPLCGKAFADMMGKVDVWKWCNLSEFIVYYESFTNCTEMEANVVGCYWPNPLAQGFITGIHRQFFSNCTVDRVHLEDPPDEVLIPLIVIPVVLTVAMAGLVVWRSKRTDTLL

B1: N^ε1-[(4S)-4-carboxy-4-[[(4S)-4-carboxy-4-(19-carboxynonadecanoylamino)butanoyl]amino]butanoyl]-[Asp14,Arg17,Pro22,Pro26,Asp35]-h-amylin (peptide)
peptide: K([γGlu-γGlu-C20 diacid])CNTATCATQRLADFLRHSSNPFGAPLSSTNVGSDTY-NH2
modifications: disulfide 2-7; N-terminus assumed
SMILES: CC(C)C[C@H](NC(=O)[C@H](CCCNC(=N)N)NC(=O)[C@H](CCC(N)=O)NC(=O)[C@@H](NC(=O)[C@H](C)NC(=O)[C@@H]1CSSC[C@H](NC(=O)[C@@H](N)CCCCNC(=O)CC[C@H](NC(=O)CC[C@H](NC(=O)CCCCCCCCCCCCCCCCCCC(=O)O)C(=O)O)C(=O)O)C(=O)N[C@@H](CC(N)=O)C(=O)N[C@@H]([C@@H](C)O)C(=O)N[C@@H](C)C(=O)N[C@@H]([C@@H](C)O)C(=O)N1)[C@@H](C)O)C(=O)N[C@@H](C)C(=O)N[C@@H](CC(=O)O)C(=O)N[C@@H](Cc1ccccc1)C(=O)N[C@@H](CC(C)C)C(=O)N[C@@H](CCCNC(=N)N)C(=O)N[C@@H](Cc1c[nH]cn1)C(=O)N[C@@H](CO)C(=O)N[C@@H](CO)C(=O)N[C@@H](CC(N)=O)C(=O)N1CCC[C@H]1C(=O)N[C@@H](Cc1ccccc1)C(=O)NCC(=O)N[C@@H](C)C(=O)N1CCC[C@H]1C(=O)N[C@@H](CC(C)C)C(=O)N[C@@H](CO)C(=O)N[C@@H](CO)C(=O)N[C@H](C(=O)N[C@@H](CC(N)=O)C(=O)N[C@H](C(=O)NCC(=O)N[C@@H](CO)C(=O)N[C@@H](CC(=O)O)C(=O)N[C@H](C(=O)N[C@@H](Cc1ccc(O)cc1)C(N)=O)[C@@H](C)O)C(C)C)[C@@H](C)O
notes: Synthetic acylated analogue of human amylin; also called compound 3
B2: N{Alpha-1}-[(4S)-4-carboxy-4-(19-carboxynonadecanoylamino)butanoyl]-[Glu14,Arg17,Pro21,Pro27,Lys34]-h-amylin (peptide)
peptide: {C20 diacid-γGlu}-KCNTATCATQRLAEFLRHSSPNFGAIPSSTNVGKNTY-NH2
modifications: disulfide 2-7
SMILES: CC[C@H](C)[C@H](NC(=O)[C@H](C)NC(=O)CNC(=O)[C@H](Cc1ccccc1)NC(=O)[C@H](CC(N)=O)NC(=O)[C@@H]1CCCN1C(=O)[C@H](CO)NC(=O)[C@H](CO)NC(=O)[C@H](Cc1c[nH]cn1)NC(=O)[C@H](CCCNC(=N)N)NC(=O)[C@H](CC(C)C)NC(=O)[C@H](Cc1ccccc1)NC(=O)[C@H](CCC(=O)O)NC(=O)[C@H](C)NC(=O)[C@H](CC(C)C)NC(=O)[C@H](CCCNC(=N)N)NC(=O)[C@H](CCC(N)=O)NC(=O)[C@@H](NC(=O)[C@H](C)NC(=O)[C@@H]1CSSC[C@H](NC(=O)[C@H](CCCCN)NC(=O)CC[C@H](NC(=O)CCCCCCCCCCCCCCCCCCC(=O)O)C(=O)O)C(=O)N[C@@H](CC(N)=O)C(=O)N[C@@H]([C@@H](C)O)C(=O)N[C@@H](C)C(=O)N[C@@H]([C@@H](C)O)C(=O)N1)[C@@H](C)O)C(=O)N1CCC[C@H]1C(=O)N[C@@H](CO)C(=O)N[C@@H](CO)C(=O)N[C@H](C(=O)N[C@@H](CC(N)=O)C(=O)N[C@H](C(=O)NCC(=O)N[C@@H](CCCCN)C(=O)N[C@@H](CC(N)=O)C(=O)N[C@H](C(=O)N[C@@H](Cc1ccc(O)cc1)C(N)=O)[C@@H](C)O)C(C)C)[C@@H](C)O
notes: Synthetic acylated analogue of human amylin; also called compound 36
B3: N^α1-[(4S)-4-carboxy-4-(19-carboxynonadecanoylamino)butanoyl]-[Glu14,Arg17,Pro21,Pro25,Pro28,Pro29]-h-amylin (peptide)
peptide: {C20 diacid-γGlu}-KCNTATCATQRLAEFLRHSSPNFGPILPPTNVGSNTY-NH2
modifications: disulfide 2-7
SMILES: CC[C@H](C)[C@H](NC(=O)[C@@H]1CCCN1C(=O)CNC(=O)[C@H](Cc1ccccc1)NC(=O)[C@H](CC(N)=O)NC(=O)[C@@H]1CCCN1C(=O)[C@H](CO)NC(=O)[C@H](CO)NC(=O)[C@H](Cc1c[nH]cn1)NC(=O)[C@H](CCCNC(=N)N)NC(=O)[C@H](CC(C)C)NC(=O)[C@H](Cc1ccccc1)NC(=O)[C@H](CCC(=O)O)NC(=O)[C@H](C)NC(=O)[C@H](CC(C)C)NC(=O)[C@H](CCCNC(=N)N)NC(=O)[C@H](CCC(N)=O)NC(=O)[C@@H](NC(=O)[C@H](C)NC(=O)[C@@H]1CSSC[C@H](NC(=O)[C@H](CCCCN)NC(=O)CC[C@H](NC(=O)CCCCCCCCCCCCCCCCCCC(=O)O)C(=O)O)C(=O)N[C@@H](CC(N)=O)C(=O)N[C@@H]([C@@H](C)O)C(=O)N[C@@H](C)C(=O)N[C@@H]([C@@H](C)O)C(=O)N1)[C@@H](C)O)C(=O)N[C@@H](CC(C)C)C(=O)N1CCC[C@H]1C(=O)N1CCC[C@H]1C(=O)N[C@H](C(=O)N[C@@H](CC(N)=O)C(=O)N[C@H](C(=O)NCC(=O)N[C@@H](CO)C(=O)N[C@@H](CC(N)=O)C(=O)N[C@H](C(=O)N[C@@H](Cc1ccc(O)cc1)C(N)=O)[C@@H](C)O)C(C)C)[C@@H](C)O
notes: Synthetic acylated analogue of human amylin; also called compound 6
B4: N^ε1-[2-[2-[2-(19-carboxynonadecanoylamino)ethoxy]ethoxy]acetyl]-[Arg17,Pro21,Pro27]-h-amylin (peptide)
peptide: K([AEEA-C20 diacid])CNTATCATQRLANFLRHSSPNFGAIPSSTNVGSNTY-NH2
modifications: disulfide 2-7; N-terminus assumed
SMILES: CC[C@H](C)[C@H](NC(=O)[C@H](C)NC(=O)CNC(=O)[C@H](Cc1ccccc1)NC(=O)[C@H](CC(N)=O)NC(=O)[C@@H]1CCCN1C(=O)[C@H](CO)NC(=O)[C@H](CO)NC(=O)[C@H](Cc1c[nH]cn1)NC(=O)[C@H](CCCNC(=N)N)NC(=O)[C@H](CC(C)C)NC(=O)[C@H](Cc1ccccc1)NC(=O)[C@H](CC(N)=O)NC(=O)[C@H](C)NC(=O)[C@H](CC(C)C)NC(=O)[C@H](CCCNC(=N)N)NC(=O)[C@H](CCC(N)=O)NC(=O)[C@@H](NC(=O)[C@H](C)NC(=O)[C@@H]1CSSC[C@H](NC(=O)[C@@H](N)CCCCNC(=O)COCCOCCNC(=O)CCCCCCCCCCCCCCCCCCC(=O)O)C(=O)N[C@@H](CC(N)=O)C(=O)N[C@@H]([C@@H](C)O)C(=O)N[C@@H](C)C(=O)N[C@@H]([C@@H](C)O)C(=O)N1)[C@@H](C)O)C(=O)N1CCC[C@H]1C(=O)N[C@@H](CO)C(=O)N[C@@H](CO)C(=O)N[C@H](C(=O)N[C@@H](CC(N)=O)C(=O)N[C@H](C(=O)NCC(=O)N[C@@H](CO)C(=O)N[C@@H](CC(N)=O)C(=O)N[C@H](C(=O)N[C@@H](Cc1ccc(O)cc1)C(N)=O)[C@@H](C)O)C(C)C)[C@@H](C)O
notes: Synthetic acylated analogue of human amylin; also called compound 43
B5: N^ε-[(4S)-4-carboxy-4-(19-carboxynonadecanoylamino)butanoyl]Lys[Arg1,Arg17,Pro21,Pro27,His35]-h-amylin (peptide)
peptide: K([γGlu-C20 diacid])RCNTATCATQRLANFLRHSSPNFGAIPSSTNVGSHTY-NH2
modifications: disulfide 3-8; N-terminus assumed
SMILES: CC[C@H](C)[C@H](NC(=O)[C@H](C)NC(=O)CNC(=O)[C@H](Cc1ccccc1)NC(=O)[C@H](CC(N)=O)NC(=O)[C@@H]1CCCN1C(=O)[C@H](CO)NC(=O)[C@H](CO)NC(=O)[C@H](Cc1c[nH]cn1)NC(=O)[C@H](CCCNC(=N)N)NC(=O)[C@H](CC(C)C)NC(=O)[C@H](Cc1ccccc1)NC(=O)[C@H](CC(N)=O)NC(=O)[C@H](C)NC(=O)[C@H](CC(C)C)NC(=O)[C@H](CCCNC(=N)N)NC(=O)[C@H](CCC(N)=O)NC(=O)[C@@H](NC(=O)[C@H](C)NC(=O)[C@@H]1CSSC[C@H](NC(=O)[C@H](CCCNC(=N)N)NC(=O)[C@@H](N)CCCCNC(=O)CC[C@H](NC(=O)CCCCCCCCCCCCCCCCCCC(=O)O)C(=O)O)C(=O)N[C@@H](CC(N)=O)C(=O)N[C@@H]([C@@H](C)O)C(=O)N[C@@H](C)C(=O)N[C@@H]([C@@H](C)O)C(=O)N1)[C@@H](C)O)C(=O)N1CCC[C@H]1C(=O)N[C@@H](CO)C(=O)N[C@@H](CO)C(=O)N[C@H](C(=O)N[C@@H](CC(N)=O)C(=O)N[C@H](C(=O)NCC(=O)N[C@@H](CO)C(=O)N[C@@H](Cc1c[nH]cn1)C(=O)N[C@H](C(=O)N[C@@H](Cc1ccc(O)cc1)C(N)=O)[C@@H](C)O)C(C)C)[C@@H](C)O
notes: Synthetic acylated analogue of human amylin, extended by Lys at the N-terminus; also called compound 44
B6: N^ε1-[2-[2-[2-[[(4S)-4-carboxy-4-(19-carboxynonadecanoylamino)butanoyl]amino]ethoxy]ethoxy]acetyl]-[Arg17,Pro21,Pro27]-h-amylin (peptide)
peptide: K([AEEA-γGlu-C20 diacid])CNTATCATQRLANFLRHSSPNFGAIPSSTNVGSNTY-NH2
modifications: disulfide 2-7; N-terminus assumed
SMILES: CC[C@H](C)[C@H](NC(=O)[C@H](C)NC(=O)CNC(=O)[C@H](Cc1ccccc1)NC(=O)[C@H](CC(N)=O)NC(=O)[C@@H]1CCCN1C(=O)[C@H](CO)NC(=O)[C@H](CO)NC(=O)[C@H](Cc1c[nH]cn1)NC(=O)[C@H](CCCNC(=N)N)NC(=O)[C@H](CC(C)C)NC(=O)[C@H](Cc1ccccc1)NC(=O)[C@H](CC(N)=O)NC(=O)[C@H](C)NC(=O)[C@H](CC(C)C)NC(=O)[C@H](CCCNC(=N)N)NC(=O)[C@H](CCC(N)=O)NC(=O)[C@@H](NC(=O)[C@H](C)NC(=O)[C@@H]1CSSC[C@H](NC(=O)[C@@H](N)CCCCNC(=O)COCCOCCNC(=O)CC[C@H](NC(=O)CCCCCCCCCCCCCCCCCCC(=O)O)C(=O)O)C(=O)N[C@@H](CC(N)=O)C(=O)N[C@@H]([C@@H](C)O)C(=O)N[C@@H](C)C(=O)N[C@@H]([C@@H](C)O)C(=O)N1)[C@@H](C)O)C(=O)N1CCC[C@H]1C(=O)N[C@@H](CO)C(=O)N[C@@H](CO)C(=O)N[C@H](C(=O)N[C@@H](CC(N)=O)C(=O)N[C@H](C(=O)NCC(=O)N[C@@H](CO)C(=O)N[C@@H](CC(N)=O)C(=O)N[C@H](C(=O)N[C@@H](Cc1ccc(O)cc1)C(N)=O)[C@@H](C)O)C(C)C)[C@@H](C)O
notes: Synthetic acylated analogue of human amylin; also called compound 41

One assay addresses T1, human calcitonin receptor. The assay can be described thus: cell-based or functional assay.
As for B1, the “hCTR funct. EC50” value amounted to 1.38 nM.
On the same count and under the same terms, to B2 belongs 1.28 nM.
Same read-out and setting: the result for B3 reads 0.729 nM.
On the same count and under the same terms, the result for B4 reads 0.92 nM.
With B5, the “hCTR funct. EC50” value worked out at 4.75 nM.
Consider B6, for which the “hCTR funct. EC50” value came out at 4.35 nM.

A further assay deals with T2, human amylin receptor (amylin 3(a) …). Briefly: cell-based or functional assay.
Regarding B1, the “Ratio hCT/hAmylin funct.” value is 6.7 ratio and the “hAmylin-R funct. EC50” value worked out at 0.205 nM.
B2: the “Ratio hCT/hAmylin funct.” value is 6.8 ratio and the “hAmylin-R funct. EC50” value is 0.189 nM.
Turning to B3, the “Ratio hCT/hAmylin funct.” value was 5.7 ratio and the “hAmylin-R funct. EC50” value is 0.128 nM.
For B4 the same measures were 6.5 ratio and 0.141 nM.
The corresponding values for B5 are 24 ratio and 0.198 nM.
On to B6, for which the “Ratio hCT/hAmylin funct.” value is 16.7 ratio and the “hAmylin-R funct. EC50” value came out at 0.26 nM.
